The target in assay [1] is KIR2DL1 recombinant protein (entire extracellular domain, produced in E. coli, immobilized on Biacore chip) (human) (UniProt P43626). As to the kind of experiment: SPR, KIR2DL1 chip; second Ab after first Ab EB6.
For assay [2] the target is unchanged. Nature of the assay: SPR, KIR2DL1 chip; second Ab after first Ab 1-6 F1.
Assay [3] shares this target. Nature of the assay: SPR, KIR2DL1 chip; second Ab after first Ab 1-7 F9.
Assay [4] shares this target. As to the kind of experiment: SPR, KIR2DL1 chip; second Ab alone (field of first Ab EB6).
Assay [5] has the same target. As to the kind of experiment: SPR competition, KIR2DL1 chip; competitor (second Ab) DF200.
Assay [6] has the same target. As to the kind of experiment: SPR competition, KIR2DL1 chip; competitor (second Ab) Pan2D.
Assay [7] shares this target. As to the kind of experiment: SPR competition, KIR2DL1 chip; competitor (second Ab) 1-4 F1.
Assay [8] shares this target. As to the kind of experiment: SPR competition, KIR2DL1 chip; competitor (second Ab) 1-6 F1.
The target is the same in assay [9]. As to the kind of experiment: SPR competition, KIR2DL1 chip; competitor (second Ab) 1-7 F9.
Assay [10] has the same target. As to the kind of experiment: SPR, KIR2DL1 chip; second Ab alone (field of first Ab 1-6 F1).
For assay [11] the target is unchanged. As to the kind of experiment: SPR, KIR2DL1 chip; second Ab alone (field of first Ab 1-7 F9).
Assay [12] shares this target. Nature of the assay: SPR competition, KIR2DL1 chip; competitor (second Ab) EB6 (self).

Sequence of KIR2DL1 recombinant protein (entire extracellular domain, produced in E. coli, immobilized on Biacore chip) (human) (P43626 22-245): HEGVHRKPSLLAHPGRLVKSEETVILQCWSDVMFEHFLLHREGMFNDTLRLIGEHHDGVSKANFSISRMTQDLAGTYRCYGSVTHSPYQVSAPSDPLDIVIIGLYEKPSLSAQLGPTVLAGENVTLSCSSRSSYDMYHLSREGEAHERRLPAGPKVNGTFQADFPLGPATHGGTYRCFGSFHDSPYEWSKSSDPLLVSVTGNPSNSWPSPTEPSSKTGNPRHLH

EB6 (IgG1 anti KIR2DL1) (antibody): the RU, second antibody with first antibody present in [1] was determined as 200 RU; in [2] it was 320 RU; in assay [3] it was 180 RU. Moreover, the RU, direct binding of second antibody came to 460 RU in assay [4], 260 RU in assay [10] and 460 RU in assay [11]. The % inhibition of second antibody binding in assay [5] was 60%; in assay [6], 40%; in [7], 48%; in assay [8], 23%; in [9], 65%; in [12], 57%.

The record behind these values is US20060280740A1.
